B1: HDV Ribozyme (parent)
chain: GGCCGGCAUGGUCCCAGCCUCCUCGCUGGCGCCGGCUGGGCAACAUUCCGAGGGGACCGUCCCCUCGGUAAUGGCGAAUGGGACCCA

Variants of: B1
Assay: self-cleavage, relative activity (ratio to wild type); higher = more cleavage; co-transcriptional
With GGCCGGCAUGGUCCCAGCCUCCUCGCUGACGCCGGCUGGGCAACAUUCCGAGGGGACCGUCCCCUCGGUAAUGGCGAAUGGGAUCCA the self-cleavage was 0.133.
GGCCGGCAUGGUCCCAGCCUCCUCGCUGACGCCGGCUGGGCAACAUUCCGAGGGGACCGUCCCCUCGGUAAUGGCGAAUGGGAACCA gave a self-cleavage of 0.245.
GGCCGGCAUGGUCCCAGCCUCCUCGCUGACGCCGGCUGGGCAACAUUCCGAGGGGACCGUCACCUCGGUAAUGGCGAAUGGGACCCA gave a self-cleavage of 0.391.
For GGCCGGCAUGGUCCCAGCCUCCUCGCUGACGCCGGCUGGGCAACAUUCCGAGGGGACCGUCCCCUCGGUAAUGGUGAAUGGGACCCA, the self-cleavage was 0.0339.
GGCCGGCAUGGUCCCAGCCUCCUCGCUGACGCCGGCUGGGCAACAUUCCGAGGGGACCGUCCCCUCGGUAUUGGCGAAUGGGACCCA showed a self-cleavage of 0.0615.
For GGCCGGCAUGGUCCCAGCCUCCUCGCUGACGCCGGCUGGGCAACAUUCCGAGGGGACCGUCCCCUCGGUAAUGGCGAAUGGGGCCCA, the self-cleavage was 0.0611.
For GGCCGGCAUGGUCCCAGCCUCCUCGCUGACGCCGGCUGGGCAACAUUCCGAGGGGACCGUCCCCUCGGUAAUGGCGAAUGGGUCCCA, the self-cleavage was 0.208.
GGCCGGCAUGGUCCCAGCCUCCUCGCUGACGCCGGCUGGGCAACAUUCCGAGGGGAACGUCCCCUCGGUAAUGGCGAAUGGGACCCA gave a self-cleavage of 0.282.
GGCCGGCAUGGUCCCAGCCUCCUCGCUGACGCCGGCUGGGCAACAUUCCGAGGGGAUCGUCCCCUCGGUAAUGGCGAAUGGGACCCA showed a self-cleavage of 0.234.
GGCCGGCAUGGUCCCAGCCUCCUCGCUGACGCCGGCUGGGCAACAUUCCGAGGGGACCGUACCCUCGGUAAUGGCGAAUGGGACCCA gave a self-cleavage of 0.177.
GGCCGGCAUGGUCCCAGCCUCCUCGCUGACGCAGGCUGGGCAACAUUCCGAGGGGACCGUCCCCUCGGUAAUGGCGAAUGGGACCCA gave a self-cleavage of 0.104.
GGCCGGCAUGGUCCCAGCCUCCUCGCUGACGCCGGCUGGGCAACAUUCCGAGGGGACCGUCCCCUUGGUAAUGGCGAAUGGGACCCA showed a self-cleavage of 0.114.
In the case of GGCCGGCAUGGUCCCAGCCUCCUCGCUGACGCCGGCUGGGCAACAUUCCGAGGGGCCCGUCCCCUCGGUAAUGGCGAAUGGGACCCA, the self-cleavage is reported as 0.198.
For GGCCGGCAUGGUCCCAGCCUCCUCGCUGACGCCGGCUGGGCAACAUUCCGAGGGGGCCGUCCCCUCGGUAAUGGCGAAUGGGACCCA, the self-cleavage was 0.224.
Work on GGCCGGCAUGGUCCCAGCCUCCUCGCUUGCGCCGGCUGGGCAACAUUCCGAGGGGACCGUCCCCUCGGCAAUGGCGAAUGGGACCCA yielded a self-cleavage of 0.0791.
For GGCCGGCAUGGUCCCAGCCUCCUCGCUUGCGCCGGCUGGGCAACAUUCCGAGGGGACCGUCCCCUCGGAAAUGGCGAAUGGGACCCA, the self-cleavage was 0.162.
GGCCGGCAUGGUCCCAGCCUCCUCGCUGACGCCGGCUGGGCAAAAUUCCGAGGGGACCGUCCCCUCGGUAAUGGCGAAUGGGACCCA showed a self-cleavage of 0.198.
In the case of GGCCGGCAUGGUCCCAGCCUCCUCGCUGACGCCGGCUGGGCAAGAUUCCGAGGGGACCGUCCCCUCGGUAAUGGCGAAUGGGACCCA, the self-cleavage is reported as 0.151.
With GGCCGGCAUGGUCCCAGCCUCCUCGCUGACGCCGGCUGGGCCACAUUCCGAGGGGACCGUCCCCUCGGUAAUGGCGAAUGGGACCCA the self-cleavage was 0.104.
Variant GGCCGGCAUGGUCCCAGCCUCCUCGCUGACGCCGGCUGGGCAACUUUCCGAGGGGACCGUCCCCUCGGUAAUGGCGAAUGGGACCCA has a self-cleavage of 0.0332.
Variant GGCCGGCAUGGUCCCAGCCUCCUCGCUGACGCCGGCUGGGCAACGUUCCGAGGGGACCGUCCCCUCGGUAAUGGCGAAUGGGACCCA has a self-cleavage of 0.142.
In the case of GGCCGGCAUGGUCCCAGCCUCCUCGCUGACGCCGGCUGGGCAACCUUCCGAGGGGACCGUCCCCUCGGUAAUGGCGAAUGGGACCCA, the self-cleavage is reported as 0.
With GGCCGGCAUGGUCCCAGCCUCCUCGCUGACGCCGGCUGGACAACAUUCCGAGGGGACCGUCCCCUCGGUAAUGGCGAAUGGGACCCA the self-cleavage was 0.237.
Work on GGCCGGCAUGGUCCCAGCCUCCUCGCUGACGCCGGCUGGGCAACAUUCAGAGGGGACCGUCCCCUCGGUAAUGGCGAAUGGGACCCA yielded a self-cleavage of 0.136.
For GGCCGGCAUGGUCCCAGCCUCCUCGCUGACGCCGGCUGGGCAACAUUCCGAGUGGACCGUCCCCUCGGUAAUGGCGAAUGGGACCCA, the self-cleavage was 0.114.
GGCCGGCAUGGUCCCAGCCUCCUCGCUGACGCCGGCUGGGCAUCAUUCCGAGGGGACCGUCCCCUCGGUAAUGGCGAAUGGGACCCA showed a self-cleavage of 0.0252.
Variant GGCCGGCAUGGUCCCAGCCUCCUCGCUGACGCCGGCUGGGCAGCAUUCCGAGGGGACCGUCCCCUCGGUAAUGGCGAAUGGGACCCA has a self-cleavage of 0.0386.
With GGCCGGCAUGGUCCCAGCCUCCUCGCUGACGCCGGCUGGGCAACAUUCCGGGGGGACCGUCCCCUCGGUAAUGGCGAAUGGGACCCA the self-cleavage was 0.366.
Work on GGCCGGCAUGGUCCCAGCCUCCUCGCUGACGCCGGCUGGGCAACAUUCCGUGGGGACCGUCCCCUCGGUAAUGGCGAAUGGGACCCA yielded a self-cleavage of 0.277.
Work on GGCCGGCAUGGUCCCAGCCUCCUCGCUGACGCCGGCUGGGCAACAUUCCGAGGGGACCGUCCCCUCGGUGAUGGCGAAUGGGACCCA yielded a self-cleavage of 0.17.
GGCCGGCAUGGUCCCAGCCUCCUCGCUGACGCCGGCUGGGCAACAUUCCGAGGGGACCGUCCCCUCGGUUAUGGCGAAUGGGACCCA gave a self-cleavage of 0.0739.
GGCCGGCAUGGUCCCAGCCUCCUCGCUGACGCCGGCUGGGCAACAUUCCGAGGGGACCGUCCCCUCGGUCAUGGCGAAUGGGACCCA gave a self-cleavage of 0.0978.
With GGCCGGCAUGGUCCCAGCCUCCUCGCUGACGCCGGCUGAGCAACAUUCCGAGGGGACCGUCCCCUCGGUAAUGGCGAAUGGGACCCA the self-cleavage was 0.0863.
GGCCGGCAUGGUCCCAGCCUCCUCGCUGACGCCGGCUGCGCAACAUUCCGAGGGGACCGUCCCCUCGGUAAUGGCGAAUGGGACCCA showed a self-cleavage of 0.0941.
Work on GGCCGGCAUGGUCCCAGCCUCCUCGCUGACGCCGGCUGUGCAACAUUCCGAGGGGACCGUCCCCUCGGUAAUGGCGAAUGGGACCCA yielded a self-cleavage of 0.0432.
GGCCGGCAUGGUCCCAGCCUCCUCGCUGACGCCGGCUGGGCAACAUUCCGAGGGGACCGUCCCCUCGGUAAUGGCGAAUGGGACCUA showed a self-cleavage of 0.0314.
Variant GGCCGGCAUGGUCCCAGCCUCCUCGCUGACGCCGGCUGGGCAACAUUCCGAGGGGACCGUCCCCUCGGUAAUGGCGAAUGGGACCGA has a self-cleavage of 0.138.
With GGCCGGCAUGGUCCCAGCCUCCUCGCUGACGCCGGCUGGGCAACAUUCCGAGGGGACCGUCCCCUCGGUAAUGGCGACUGGGACCCA the self-cleavage was 0.0997.
With GGCCGGCAUGGUCCCAGCCUCCUCGCUGACGCCGGCUGGGCAACAUUCCGAGGGGACCGUCCCCUCGGUAAUGGCGAGUGGGACCCA the self-cleavage was 0.0804.
In the case of GGCCGGCAUGGUCCCAGCCUCCUCGCUGACGCCGGCUUGGCAACAUUCCGAGGGGACCGUCCCCUCGGUAAUGGCGAAUGGGACCCA, the self-cleavage is reported as 0.113.
GGCCGGCAUGGUCCCAGCCUCCUCGCUGACGCCGGCUGGGCAACAUUCCGAGGGGACCGUCCCCUCGGUAAUGGCGAAUGGGACUCA gave a self-cleavage of 0.0978.
For GGCCGGCAUGGUCCCAGCCUCCUCGCUGACGCCGGCUGGGCAACAUUCCGAGGGGACCGUCCCCUCGGUAAUGGCGGAUGGGACCCA, the self-cleavage was 0.095.
GGCCGGCAUGGUCCCAGCCUCCUCGCUGACGCCGGGUGGGCAACAUUCCGAGGGGACCGUCCCCUCGGUAAUGGCGAAUGGGACCCA gave a self-cleavage of 0.111.
With GGCCGGCAUGGUCCCAGCCUCCUCGCUGACGCCGGAUGGGCAACAUUCCGAGGGGACCGUCCCCUCGGUAAUGGCGAAUGGGACCCA the self-cleavage was 0.0222.
In the case of GGCCGGCAUGGUCCCAGCCUCCUCGCUGACGCCGUCUGGGCAACAUUCCGAGGGGACCGUCCCCUCGGUAAUGGCGAAUGGGACCCA, the self-cleavage is reported as 0.101.
GGCCGGCAUGGUCCCAGCCUCCUCGCUGACGCCGCCUGGGCAACAUUCCGAGGGGACCGUCCCCUCGGUAAUGGCGAAUGGGACCCA showed a self-cleavage of 0.149.
Variant GGCCGGCAUGGUCCCAGCCUCCUCGCUGACGCCGGCUGGGGAACAUUCCGAGGGGACCGUCCCCUCGGUAAUGGCGAAUGGGACCCA has a self-cleavage of 0.0339.
GGCCGGCAUGGUCCCAGCCUCCUCGCUGACGCCGGCUGGGCAACAUUCCGAGGGGACCGUCCCUUCGGUAAUGGCGAAUGGGACCCA gave a self-cleavage of 0.144.
With GGCCGGCAUGGUCCCAGCCUCCUCGCUGACGCCGGCUGGGCAACAUUCCGAGGGGACUGUCCCCUCGGUAAUGGCGAAUGGGACCCA the self-cleavage was 0.197.
Variant GGCCGGCAUGGUCCCAGCCUCCUCGCUGACGCCGGCUGGGCAACAUUCCGAGGGGACGGUCCCCUCGGUAAUGGCGAAUGGGACCCA has a self-cleavage of 0.271.
For GGCCGGCAUGGUCCCAGCCUCCUCGCUGAAGCCGGCUGGGCAACAUUCCGAGGGGACCGUCCCCUCGGUAAUGGCGAAUGGGACCCA, the self-cleavage was 0.0264.
In the case of GGCCGGCAUGGUCCCAGCCUCCUCGCUGAUGCCGGCUGGGCAACAUUCCGAGGGGACCGUCCCCUCGGUAAUGGCGAAUGGGACCCA, the self-cleavage is reported as 0.095.
Work on GGCCGGCAUGGUCCCAGCCUCCUCGCUGACGCCGGCUGGGCAACAUUCCGAGGGGACCGUCCUCUCGGUAAUGGCGAAUGGGACCCA yielded a self-cleavage of 0.226.
For GGCCGGCAUGGUCCCAGCCUCCUCGCUGACGCCGGCUGGGCAACAUUCCGAGGGGACCGUCCGCUCGGUAAUGGCGAAUGGGACCCA, the self-cleavage was 0.128.
In the case of GGCCGGCAUGGUCCCAGCCUCCUCGCUGACGCCGGCUGGGCAACAUUGCGAGGGGACCGUCCCCUCGGUAAUGGCGAAUGGGACCCA, the self-cleavage is reported as 0.0875.
GGCCGGCAUGGUCCCAGCCUCCUCGCUGACGCCGGCUGGGCAACAUUACGAGGGGACCGUCCCCUCGGUAAUGGCGAAUGGGACCCA showed a self-cleavage of 0.262.
In the case of GGCCGGCAUGGUCCCAGCCUCCUCGCUGACGCCGGCUGGGCAACAUUUCGAGGGGACCGUCCCCUCGGUAAUGGCGAAUGGGACCCA, the self-cleavage is reported as 0.0656.
With GGCCGGCAUGGUCCCAGCCUCCUCGCUUGCGCCGGCUGGGCAACAUUCCGAGGGGACCGUCCCCUCGGUAAUGGCGAACGGGACCCA the self-cleavage was 0.0707.
In the case of GGCCGGCAUGGUCCCAGCCUCCUCGCUUGCGCCGGCUGGGCAACAUUCCGAGGGGACCGUCCCCUCGGUAAUGGCGAAAGGGACCCA, the self-cleavage is reported as 0.0978.
GGCCGGCAUGGUCCCAGCCUCCUCGCUUGCGCCGGCUGGGCAACAUUCCGAGGGGACCGUCCCCUCGGUAAUGGCGAAGGGGACCCA gave a self-cleavage of 0.0978.
In the case of GGCCGGCAUGGUCCCAGCCUCCUCGCUGACGUCGGCUGGGCAACAUUCCGAGGGGACCGUCCCCUCGGUAAUGGCGAAUGGGACCCA, the self-cleavage is reported as 0.218.
GGCCGGCAUGGUCCCAGCCUCCUCGCUGACGACGGCUGGGCAACAUUCCGAGGGGACCGUCCCCUCGGUAAUGGCGAAUGGGACCCA gave a self-cleavage of 0.0222.
GGCCGGCAUGGUCCCAGCCUCCUCGCUGACGCCGGCUGGGCAACAUUCCGAAGGGACCGUCCCCUCGGUAAUGGCGAAUGGGACCCA gave a self-cleavage of 0.0554.
GGCCGGCAUGGUCCCAGCCUCCUCGCUUGCGCCGGCUGGGCAACAUUCCGAGGGGACCGUCCCCUCGGUAAAGGCGAAUGGGACCCA gave a self-cleavage of 0.
